Where no end group is shown, it is not given here. The star is where a group is joined. Biotin = O=C1N[C@H]2[C@H](CS[C@H]2CCCCC(=O)*)N1
Tests used:
[1] = molecular target: T1, biotin-peptide MEDYVNFNFT (human); experiment: ELISA biotin-peptide; scFv 10 ug/mL; repI
T1 peptide: Biotin-MEDYVNFNFT
Protocol: (§1) The peptides were synthesized naked or with a N-terminal Biotin modification with a purity of >98%. All four scFvs were verified by ELISA that can be detected with anti-His antibodies. ELISA was performed for scFv-peptide binding validation. Briefly, naked peptides were coated (50 μg/mL) in 0.58M carbonate-bicarbonate buffer pH9.5, 100 μL/well, 4° C. O/N. Then after blocking (3% BSA-PBS, 300 μL/well 37° C. 1.5 h) and washing (PBS+Tween-20 0.05% v/v (0.05% PBST), wells were incubated with each purified scFv antibody at concentration of 1 μg/mL in PBS at 37° C. 1 h. After washing (0.05% PBST), wells were incubated with secondary antibodies (goat anti-His IgG-HRP) in PBS, 37° C., 30 min. After washing, and incubation with TMB substrate, reactions were stopped with 2M HCl and reading was quantified at OD450.
(§2) Then a library of overlapping peptides were designed and constructed separately to produce 16 different peptides, covering full antigen sequence of total 48 aa. Peptide size was 10aa, with 7aa overlapping and ELISA screening of scFv against each peptide was performed in duplicate. Screening was performed using naked peptides in a standard plate or biotinylated peptides using avidin-plates. The list of overlapping peptides was as follows:
(§3) ELISA with biotin-conjugated peptides (5 μg/mL) was performed very similar to described above with minor modifications.

[2] = molecular target: T2, biotin-peptide MADDYGSEST (human); experiment: ELISA biotin-peptide; scFv 10 ug/mL; repI
T2 peptide: Biotin-MADDYGSEST
Protocol: as §1, §2, §3

biotin-peptide KNNVRQFAS = molecular target: T3, biotin-peptide KNNVRQFAS (human); experiment: ELISA biotin-peptide; scFv 10 ug/mL; repI
T3 peptide: Biotin-KNNVRQFAS
Protocol: as §1, §2, §3

[3] = molecular target: T4, biotin-peptide FNFTDFYCEK (human); experiment: ELISA biotin-peptide; scFv 10 ug/mL; repI
T4 peptide: Biotin-FNFTDFYCEK
Protocol: as §1, §2, §3

[4] = molecular target: T5, biotin-peptide TSSMEDYVNF (human); experiment: ELISA biotin-peptide; scFv 10 ug/mL; repI
T5 peptide: Biotin-TSSMEDYVNF
Protocol: as §1, §2, §3

[5] = molecular target: T6, biotin-peptide TDFYCEKNNV (human); experiment: ELISA biotin-peptide; scFv 10 ug/mL; repI
T6 peptide: Biotin-TDFYCEKNNV
Protocol: as §1, §2, §3

[6] = molecular target: T7, biotin-peptide IPNMADDYGS (human); experiment: ELISA biotin-peptide; scFv 10 ug/mL; repI
T7 peptide: Biotin-IPNMADDYGS
Protocol: as §1, §2, §3

[7] = molecular target: T8, biotin-peptide TSPIPNMADD (human); experiment: ELISA biotin-peptide; scFv 10 ug/mL; repI
T8 peptide: Biotin-TSPIPNMADD
Protocol: as §1, §2, §3

[8] = molecular target: T9, naked peptide 1a MTPTDFTSPIPNMADDYGSESTSS (human); experiment: ELISA naked 24-mer; repI
T9 construct: also called region 1-24
T9 peptide: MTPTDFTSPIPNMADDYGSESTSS

[9] = molecular target: T10, naked peptide 1b MEDYVNFNFTDFYCEKNNVRQFAS (human); experiment: ELISA naked 24-mer; repI
T10 construct: also called region amino acids 25 to 48
T10 peptide: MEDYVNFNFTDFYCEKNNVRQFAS

[10] = molecular target: T9, naked peptide 1a …; experiment: ELISA naked 24-mer; repII
[11] = molecular target: T10, naked peptide 1b …; experiment: ELISA naked 24-mer; repII
naked peptide IPNMADDYGS = molecular target: T11, naked peptide IPNMADDYGS (human); experiment: ELISA naked peptide; scFv 1 ug/mL; repI
T11 peptide: IPNMADDYGS
Protocol: as §1
(§4) Then a library of overlapping peptides were designed and constructed separately to produce 16 different peptides, covering full antigen sequence of total 48 aa. Peptide size was 10aa, with 7aa overlapping and ELISA screening of scFv against each peptide was performed in duplicate. Screening was performed using naked peptides in a standard plate or biotinylated peptides using avidin-plates.

naked peptide TDFTSPIPNM = molecular target: T12, naked peptide TDFTSPIPNM (human); experiment: ELISA naked peptide; scFv 1 ug/mL; repI
T12 peptide: TDFTSPIPNM
Protocol: as §1, §4

naked peptide SMEDYVNFNF = molecular target: T13, naked peptide SMEDYVNFNF (human); experiment: ELISA naked peptide; scFv 1 ug/mL; repI
T13 peptide: SMEDYVNFNF
Protocol: as §1, §4

naked peptide YVNFNFTDFY = molecular target: T14, naked peptide YVNFNFTDFY (human); experiment: ELISA naked peptide; scFv 1 ug/mL; repI
T14 peptide: YVNFNFTDFY
Protocol: as §1, §4

naked peptide MEDYVNFNFT = molecular target: T15, naked peptide MEDYVNFNFT (human); experiment: ELISA naked peptide; scFv 1 ug/mL; repI
T15 peptide: MEDYVNFNFT
Protocol: as §1, §4

naked peptide TDFYCEKNNV = molecular target: T16, naked peptide TDFYCEKNNV (human); experiment: ELISA naked peptide; scFv 1 ug/mL; repI
T16 peptide: TDFYCEKNNV
Protocol: as §1, §4

naked peptide TSPIPNMADD = molecular target: T17, naked peptide TSPIPNMADD (human); experiment: ELISA naked peptide; scFv 1 ug/mL; repI
T17 peptide: TSPIPNMADD
Protocol: as §1, §4

naked peptide FNFTDFYCEK = molecular target: T18, naked peptide FNFTDFYCEK (human); experiment: ELISA naked peptide; scFv 1 ug/mL; repI
T18 peptide: FNFTDFYCEK
Protocol: as §1, §4

naked peptide TSSMEDYVNF = molecular target: T19, naked peptide TSSMEDYVNF (human); experiment: ELISA naked peptide; scFv 1 ug/mL; repI
T19 peptide: TSSMEDYVNF
Protocol: as §1, §4

naked peptide SESTSSMEDY = molecular target: T20, naked peptide SESTSSMEDY (human); experiment: ELISA naked peptide; scFv 1 ug/mL; repI
T20 peptide: SESTSSMEDY
Protocol: as §1, §4

naked peptide MTPTDFTSPI = molecular target: T21, naked peptide MTPTDFTSPI (human); experiment: ELISA naked peptide; scFv 1 ug/mL; repI
T21 peptide: MTPTDFTSPI
Protocol: as §1, §4

naked peptide YCEKNNVRQF = molecular target: T22, naked peptide YCEKNNVRQF (human); experiment: ELISA naked peptide; scFv 1 ug/mL; repI
T22 peptide: YCEKNNVRQF
Protocol: as §1, §4

naked peptide MADDYGSEST = molecular target: T23, naked peptide MADDYGSEST (human); experiment: ELISA naked peptide; scFv 1 ug/mL; repI
T23 peptide: MADDYGSEST
Protocol: as §1, §4

naked peptide DYGSESTSSM = molecular target: T24, naked peptide DYGSESTSSM (human); experiment: ELISA naked peptide; scFv 1 ug/mL; repI
T24 peptide: DYGSESTSSM
Protocol: as §1, §4

naked peptide SSMEDYVNFN = molecular target: T25, naked peptide SSMEDYVNFN (human); experiment: ELISA naked peptide; scFv 1 ug/mL; repI
T25 peptide: SSMEDYVNFN
Protocol: as §1, §4

naked peptide KNNVRQFAS = molecular target: T26, naked peptide KNNVRQFAS (human); experiment: ELISA naked peptide; scFv 1 ug/mL; repI
T26 peptide: KNNVRQFAS
Protocol: as §1, §4

B1: Comparative antibody 1 (Comp-1) scFv, SEQ ID NO: 10 from WO2023/037125 A1, His-tagged (scFv)
scFv: QVQLKESGPGLVQPSQTLSLTCTVSGFSVASYDMHWVRLPPGKGLEWMGIIWANGNTHYNSGLKSRLSISRDTSKSQVFLKMNSLQTEDTAIYFCTRGGFAYWGQGTLVTVSSGGGGSGGGGSGGGGSGGGGSDVVMTQTPVSLSVSLGGQVSISCRSSQSLVHNNGNTYLSWYLQKPGQSPQLLIYKVSNRFSGVSDRFSGSGSGTDFTLKISRVEPDDLGVYYCGQGTQYPTFGGGTKLELKHHHHHH
Question: Which OD450 [1] does the source give for B1 here?
Answer: The OD450 was 0.16 OD.

Question: What about the OD450 [2] of the same binder?
Answer: Its OD450 is 0.08 OD.

Question: And the OD450 (biotin-peptide KNNVRQFAS)?
Answer: The OD450 was 0.05 OD.

Question: And the OD450 [3]?
Answer: The OD450 was 0.06 OD.

Question: What about the OD450 [4] of the same binder?
Answer: The OD450 was 0.1 OD.

Question: What about the OD450 [5] of the same binder?
Answer: The OD450 was 0.08 OD.

Question: What about the OD450 [6] of the same binder?
Answer: The OD450 was 0.16 OD.

Question: What about the OD450 [7] of the same binder?
Answer: Its OD450 is 0.13 OD.

Question: And the OD450 [8]?
Answer: The OD450 was 0.08 OD.

Question: What about the OD450 [9] of the same binder?
Answer: The OD450 was 0.09 OD.

Question: What about the OD450 [10] of the same binder?
Answer: The OD450 was 0.1 OD.

Question: What about the OD450 [11] of the same binder?
Answer: The OD450 was 0.06 OD.

Question: And the OD450 (naked peptide IPNMADDYGS)?
Answer: The OD450 was 0.01 OD.

Question: What about the OD450 (naked peptide TDFTSPIPNM) of the same binder?
Answer: Its OD450 is 0.03 OD.

Question: What about the OD450 (naked peptide SMEDYVNFNF) of the same binder?
Answer: Its OD450 is 0.02 OD.

Question: And the OD450 (naked peptide YVNFNFTDFY)?
Answer: The OD450 was 0.05 OD.

Question: And the OD450 (naked peptide MEDYVNFNFT)?
Answer: The OD450 was 0.05 OD.

Question: And the OD450 (naked peptide TDFYCEKNNV)?
Answer: Its OD450 is 0.03 OD.

Question: What about the OD450 (naked peptide TSPIPNMADD) of the same binder?
Answer: Its OD450 is 0.05 OD.

Question: And the OD450 (naked peptide FNFTDFYCEK)?
Answer: Its OD450 is 0.02 OD.

Question: And the OD450 (naked peptide TSSMEDYVNF)?
Answer: Its OD450 is 0.03 OD.

Question: What about the OD450 (naked peptide SESTSSMEDY) of the same binder?
Answer: Its OD450 is 0.03 OD.

Question: And the OD450 (naked peptide MTPTDFTSPI)?
Answer: Its OD450 is 0.05 OD.

Question: And the OD450 (naked peptide YCEKNNVRQF)?
Answer: The OD450 was 0.02 OD.

Question: And the OD450 (naked peptide MADDYGSEST)?
Answer: The OD450 was 0.02 OD.

Question: And the OD450 (naked peptide DYGSESTSSM)?
Answer: The OD450 was 0.02 OD.

Question: And the OD450 (naked peptide SSMEDYVNFN)?
Answer: Its OD450 is 0.07 OD.

Question: And the OD450 (naked peptide KNNVRQFAS)?
Answer: Its OD450 is 0.02 OD.

Reference: patent US20260232732A1 (FUNDACI INSTITUT DE RECERCA CONTRA LA LEUC MIA JOSEP …, published 2026)
